Measurements reported in doi:10.1101/2025.01.24.634724, “Receptor Activity-Modifying Protein 3 enhances GLP-1-mediated Insulin Secretion” (bioRxiv, 2025).

Legend:
Nluc-GLP-1R (human) = Nluc-GLP-1R (human) (UniProt P43220)
[1] = biological target: Nluc-GLP-1R co-expressed with FLAG-RAMP3 (UniProt P43220)
Sequence of Nluc-GLP-1R co-expressed with FLAG-RAMP3 (P43220 24-463, chain 1 of 2): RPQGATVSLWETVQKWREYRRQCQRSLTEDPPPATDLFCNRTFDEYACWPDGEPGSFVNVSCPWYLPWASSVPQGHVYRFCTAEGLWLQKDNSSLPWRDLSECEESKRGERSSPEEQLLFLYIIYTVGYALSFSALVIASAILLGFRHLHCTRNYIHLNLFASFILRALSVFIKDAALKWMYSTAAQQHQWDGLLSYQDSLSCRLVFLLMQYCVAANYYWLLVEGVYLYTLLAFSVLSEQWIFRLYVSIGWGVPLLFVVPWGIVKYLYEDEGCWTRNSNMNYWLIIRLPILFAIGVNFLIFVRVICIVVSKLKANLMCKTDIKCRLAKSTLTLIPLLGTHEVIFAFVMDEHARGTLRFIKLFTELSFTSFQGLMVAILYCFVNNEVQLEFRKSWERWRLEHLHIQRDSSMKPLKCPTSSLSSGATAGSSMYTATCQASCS
Sequence of Nluc-GLP-1R co-expressed with FLAG-RAMP3 (O60896 24-148, chain 2 of 2, further chain): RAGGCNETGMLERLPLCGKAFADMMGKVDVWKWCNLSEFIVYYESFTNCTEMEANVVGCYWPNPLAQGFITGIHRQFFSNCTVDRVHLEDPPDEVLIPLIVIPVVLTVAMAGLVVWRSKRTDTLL

Sequence of Nluc-GLP-1R (human) (P43220 24-463): as the sequence (P43220 24-463, chain 1 of 2) above

| Substance | (Ca2+)i mobilisation in HEK293T cells, pEC50, receptor without RAMP3 (Nluc-GLP-1R (human)) [pEC50] | (Ca2+)i mobilisation in HEK293T cells, pEC50, RAMP3 over-expressed (2:1) [1] [pEC50] | (Ca2+)i mobilisation in HEK293T cells, maximal response, receptor without RAMP3 (percent of 10 μM ionomycin) (Nluc-GLP-1R (human)) |
| --- | --- | --- | --- |
| GLP-1 (7–36amide) (peptide) | 7.2 | 8.1 |  |
| exendin-4 (from UniProt P26349 48-87) (peptide) |  |  | 43.6 |
